This test deals with T1, OB-R (Homo sapiens, UniProt P48357).
T1 construct: The cytoplasmic domain and full-length human OB-R was cloned by PCR; expressed in transfected cells; host or cells: COS-7
T1 sequence (P48357 22-1165): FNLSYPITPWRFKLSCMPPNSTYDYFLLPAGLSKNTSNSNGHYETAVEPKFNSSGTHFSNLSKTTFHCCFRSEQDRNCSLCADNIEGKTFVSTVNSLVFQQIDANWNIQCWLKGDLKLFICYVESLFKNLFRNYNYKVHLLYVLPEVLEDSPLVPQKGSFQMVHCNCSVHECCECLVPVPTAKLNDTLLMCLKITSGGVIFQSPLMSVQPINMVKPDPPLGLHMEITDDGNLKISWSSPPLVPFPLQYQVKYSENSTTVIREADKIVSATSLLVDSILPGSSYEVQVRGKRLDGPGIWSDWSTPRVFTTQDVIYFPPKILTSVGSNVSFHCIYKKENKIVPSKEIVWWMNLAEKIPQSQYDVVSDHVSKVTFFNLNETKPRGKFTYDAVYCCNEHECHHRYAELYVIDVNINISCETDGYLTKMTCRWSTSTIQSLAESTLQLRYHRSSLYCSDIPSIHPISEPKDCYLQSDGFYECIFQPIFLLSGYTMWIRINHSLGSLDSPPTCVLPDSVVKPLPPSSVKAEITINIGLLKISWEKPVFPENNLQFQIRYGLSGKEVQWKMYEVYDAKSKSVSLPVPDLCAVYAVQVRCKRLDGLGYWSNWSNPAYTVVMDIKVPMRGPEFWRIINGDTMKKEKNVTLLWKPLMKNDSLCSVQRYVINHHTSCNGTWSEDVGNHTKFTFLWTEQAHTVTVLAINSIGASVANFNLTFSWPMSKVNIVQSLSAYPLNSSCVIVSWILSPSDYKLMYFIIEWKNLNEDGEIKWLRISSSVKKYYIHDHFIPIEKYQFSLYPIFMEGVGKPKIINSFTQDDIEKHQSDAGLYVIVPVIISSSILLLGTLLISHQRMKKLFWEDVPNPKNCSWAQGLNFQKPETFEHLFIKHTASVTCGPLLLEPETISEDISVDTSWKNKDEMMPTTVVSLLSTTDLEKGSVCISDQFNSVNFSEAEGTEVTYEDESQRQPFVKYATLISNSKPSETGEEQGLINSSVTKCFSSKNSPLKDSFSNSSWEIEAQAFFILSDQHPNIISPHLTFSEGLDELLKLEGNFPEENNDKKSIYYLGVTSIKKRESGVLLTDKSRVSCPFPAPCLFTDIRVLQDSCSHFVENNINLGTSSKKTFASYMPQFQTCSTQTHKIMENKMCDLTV
Kind of test: Immunoprecipitation and western blotting of tyrosine phosphorylation, leptin-stimulated COS cells expressing OB-R. The test is classed as cell-based. Conditions: 100 ng/ml human leptin for 10 min. As to the method:
The cytoplasmic domain and full-length human OB-R was cloned by PCR using human fetal liver and adipocyte cDNA (Clontech) and cloned into the expression vectors pCMX and pMT21. Chimeric receptors were constructed by fusing the extracellular domain and transmembrane domain of TrkC (amino acids 1 to 458) to the cytoplasmic domain of OB-R (amino acids 865-1165). A triple myc epitope tag was added at the C-terminus of all OB-R constructs (18). Truncation and point mutant constructs were generated by PCR and the sequences of all constructs were verified. Expression constructs were transfected into COS-7 cells using lipofectamine (GIBCO-BRL); 36-48 hours after transfection, cells were starved for either 2 hour,s for chimeric receptors or overnight for full-length receptors prior to stimulation.
Cells were stimulated with 50 ng/ml of human NT-3 for 15 min or 100 ng/ml of human leptin (R&D Systems) for 10 min. Cells were then lysed in a 1% Brij 96 buffer and receptor was immunoprecipitated with anti-myc antibody 9E10 (18) followed by protein G-sepharose (Pharmacia). Unbound lysate was then immunoprecipitated with anti-P-Tyr antibody (UBI, Lake Placid) or agarose-conjugated anti-SHP-2 antibody (Santa Cruz Biotechnology). […] Endogenous STAT3, SHP-2, Jak1 and Jak2 is being detected in all immunoblotting experiments. […]
(In general: Immunoblotting shows a protein as a band on a membrane.)

The values that follow come from patent US20020012949A1, “Assay systems for leptin-enhancing agents” (priority 1997, published 2002).

As to “leptin: the product of the obese gene, secreted by adipocytes; ligand of OB-R”, the “tyrosine phosphorylation of receptor, STAT3 and SHP-2” value was “results in phosphorylation of the receptor, STAT3 and SHP-2”.
